Experimental data reported in publication PMC10692916, “Protein arginine N-methyltransferase 2 plays a noncatalytic role in the histone methylation activity of PRMT1” (The Journal of Biological Chemistry, 2023).

Experiments:
[1] = target: Protein arginine N-methyltransferase 1 (PRMT1) (human) (UniProt Q99873)
[2] = target: the molecule itself; experiment: native gel or EMSA; mCer-PRMT1 and mCit-PRMT2, 1 uM each, alone or mixed, 1 h at 37 °C in methylation buffer without SAH or H3 peptide; 4-20% native PAGE, fluorescence imaging
[3] = target: T1, Protein arginine N-methyltransferase 2 (PRMT2), full-length, wild type (human, UniProt P55345-1 1-433); experiment: differential scanning fluorimetry; 5 uM PRMT2, PRMT2ΔSH3 or PRMT2H112Q with 0-500 uM peptide, 7.5x SYPRO Orange, 50 mM Hepes pH 8.0, 10 mM NaCl, 1.0 mM DTT; 30 min at room temperature, heated 25-80 °C; KD from Tm against ligand concentration, single site model; conditions: both partners purified
T1 construct: PRMT2, human, UniProt P55345-1 as printed; cloned in pET28a(+); also called WT PRMT2; native PRMT2; source: E. coli Arctic Express (DE3), purified (Ni-NTA, Superdex 200 SEC)
T1 sequence (looked up): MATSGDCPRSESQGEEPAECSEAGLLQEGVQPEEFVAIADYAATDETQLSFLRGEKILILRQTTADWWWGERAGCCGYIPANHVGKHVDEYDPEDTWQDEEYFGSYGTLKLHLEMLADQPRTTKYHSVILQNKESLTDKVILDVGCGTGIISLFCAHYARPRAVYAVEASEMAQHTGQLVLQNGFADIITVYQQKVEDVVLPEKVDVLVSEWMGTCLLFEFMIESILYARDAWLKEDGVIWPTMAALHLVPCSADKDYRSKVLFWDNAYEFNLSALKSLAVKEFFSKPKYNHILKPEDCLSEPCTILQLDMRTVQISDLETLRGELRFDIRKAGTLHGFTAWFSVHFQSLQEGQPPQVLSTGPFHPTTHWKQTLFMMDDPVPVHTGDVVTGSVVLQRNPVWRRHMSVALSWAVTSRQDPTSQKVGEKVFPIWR

Protein arginine N-methyltransferase 1 (PRMT1) (human), sequence (Q99873 other isoform, or with tags, fused parts or gaps): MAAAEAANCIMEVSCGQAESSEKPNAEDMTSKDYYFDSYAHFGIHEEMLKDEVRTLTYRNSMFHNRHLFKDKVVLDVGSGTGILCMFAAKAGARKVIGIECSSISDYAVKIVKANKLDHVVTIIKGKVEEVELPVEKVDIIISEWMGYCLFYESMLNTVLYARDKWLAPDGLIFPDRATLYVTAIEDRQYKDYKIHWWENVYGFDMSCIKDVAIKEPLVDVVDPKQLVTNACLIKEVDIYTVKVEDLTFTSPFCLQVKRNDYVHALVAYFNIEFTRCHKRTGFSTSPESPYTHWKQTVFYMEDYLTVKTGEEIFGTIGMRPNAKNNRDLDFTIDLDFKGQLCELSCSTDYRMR

B1: Protein arginine N-methyltransferase 2 (PRMT2), full-length, wild type (enzyme)
chain: MATSGDCPRSESQGEEPAECSEAGLLQEGVQPEEFVAIADYAATDETQLSFLRGEKILILRQTTADWWWGERAGCCGYIPANHVGKHVDEYDPEDTWQDEEYFGSYGTLKLHLEMLADQPRTTKYHSVILQNKESLTDKVILDVGCGTGIISLFCAHYARPRAVYAVEASEMAQHTGQLVLQNGFADIITVYQQKVEDVVLPEKVDVLVSEWMGTCLLFEFMIESILYARDAWLKEDGVIWPTMAALHLVPCSADKDYRSKVLFWDNAYEFNLSALKSLAVKEFFSKPKYNHILKPEDCLSEPCTILQLDMRTVQISDLETLRGELRFDIRKAGTLHGFTAWFSVHFQSLQEGQPPQVLSTGPFHPTTHWKQTLFMMDDPVPVHTGDVVTGSVVLQRNPVWRRHMSVALSWAVTSRQDPTSQKVGEKVFPIWR
methylation signal of histone H2A at 50 ug/ml calf thymus histones, PRMT1 100 nM with 10-fold excess of PRMT2, densitometry of phosphor images [1]: 3 fold

B2: mCit-PRMT2 (mCitrine fusion of PRMT2) (enzyme, human, UniProt P55345-1 1-433, looked up)
chain: MATSGDCPRSESQGEEPAECSEAGLLQEGVQPEEFVAIADYAATDETQLSFLRGEKILILRQTTADWWWGERAGCCGYIPANHVGKHVDEYDPEDTWQDEEYFGSYGTLKLHLEMLADQPRTTKYHSVILQNKESLTDKVILDVGCGTGIISLFCAHYARPRAVYAVEASEMAQHTGQLVLQNGFADIITVYQQKVEDVVLPEKVDVLVSEWMGTCLLFEFMIESILYARDAWLKEDGVIWPTMAALHLVPCSADKDYRSKVLFWDNAYEFNLSALKSLAVKEFFSKPKYNHILKPEDCLSEPCTILQLDMRTVQISDLETLRGELRFDIRKAGTLHGFTAWFSVHFQSLQEGQPPQVLSTGPFHPTTHWKQTLFMMDDPVPVHTGDVVTGSVVLQRNPVWRRHMSVALSWAVTSRQDPTSQKVGEKVFPIWR
notes: PRMT2, human, UniProt P55345-1 printed for PRMT2 in the same sentence; cloned in pET28a(+); also called mCitrine-PRMT2; source: E. coli Arctic Express (DE3), purified (Ni-NTA, Superdex 200 SEC)
binding result [2]: binds

B3: Histone H4 peptide (Ac-SGRGKGGKGLGKGGAKR) (peptide)
peptide: SGRGKGGKGLGKGGAKR
modifications: N-terminal acetylation
notes: N-terminal tail of histone H4; source: synthetic peptide, bought: Canada Peptide
ΔTm at 500 μM peptide [3]: 5.87 °C
